{"source": "paper PMC5009721", "binders": {"B1": {"name": "AdML three-piece heteroduplex (-40 to +37), Cy3/Cy5, quencher (dsDNA)", "DNA 1": "CCTGAGGTTAGTGTGAGTAGTGATTAAAGATAGTGATGAGGACGAACGCGCCCCCACCCCCTTTTATAGCCCCCCTT", "DNA 2": "AAGGGGGGCTATAAAAGGGGGTGGGGGCGCGAAGCAGGAGTAGACTATCTTTAATCACTA", "DNA 3": "CTCACACTAACCTCAGG"}, "B2": {"name": "AdML three-piece heteroduplex (-40 to +37), Cy3/Cy5, no quencher, no biotin (dsDNA)", "DNA 1": "B1 DNA 1", "DNA 2": "B1 DNA 2", "DNA 3": "CTCACACTAACCTCAGG"}, "B3": {"name": "18 bp TATA DNA (dsDNA)", "DNA 1": "CGTCCCTTTTATAGCCTG", "DNA 2": "CAGGCTATAAAAGGGACG"}}, "key": {"[1]": {"target": "T1, RNA polymerase II;TBP (TATA-binding protein);TFIIB;TFIIF (human (HeLa cells);human;human;human, UniProt P24928;P30876;P19387;O15514;P19388;P61218;P62487;P52434;P36954;P62875;P52435;P53 …, |||)", "T1 sequence (P20226 whole entry, chain 13 of 2)": "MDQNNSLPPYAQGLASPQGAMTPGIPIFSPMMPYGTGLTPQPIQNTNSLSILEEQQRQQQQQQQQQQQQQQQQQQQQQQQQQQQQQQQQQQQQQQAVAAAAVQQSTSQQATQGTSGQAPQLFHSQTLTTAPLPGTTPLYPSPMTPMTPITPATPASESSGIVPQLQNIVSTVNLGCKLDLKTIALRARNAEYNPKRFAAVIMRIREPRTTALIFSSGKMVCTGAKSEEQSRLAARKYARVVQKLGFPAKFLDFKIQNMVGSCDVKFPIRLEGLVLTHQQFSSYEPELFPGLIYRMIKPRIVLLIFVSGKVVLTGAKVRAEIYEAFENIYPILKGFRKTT", "T1 sequence (Q00403 whole entry, chain 14 of 2, further chain)": "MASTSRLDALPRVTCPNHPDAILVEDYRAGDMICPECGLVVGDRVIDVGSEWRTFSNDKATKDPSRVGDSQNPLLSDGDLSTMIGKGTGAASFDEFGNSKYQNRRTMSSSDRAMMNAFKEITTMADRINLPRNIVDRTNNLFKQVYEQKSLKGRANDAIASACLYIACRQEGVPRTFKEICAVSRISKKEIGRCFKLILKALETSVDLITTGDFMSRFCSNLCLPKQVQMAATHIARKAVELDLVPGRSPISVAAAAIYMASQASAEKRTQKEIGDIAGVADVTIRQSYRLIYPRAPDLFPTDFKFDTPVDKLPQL", "experiment": "EMSA"}, "[2]": {"target": "T2, RNA polymerase II (human (HeLa cells), UniProt P24928;P30876;P19387;O15514;P19388;P61218;P62487;P52434;P36954;P62875;P52435;P53 …)", "experiment": "EMSA"}, "[3]": {"target": "T2, RNA polymerase II", "experiment": "single-molecule TIRF colocalization, immobilized Pol II"}, "[4]": {"target": "T1, RNA polymerase II;TBP (TATA-binding …)", "experiment": "single-molecule TIRF colocalization, immobilized Pol II"}, "[5]": {"target": "T1, RNA polymerase II;TBP (TATA-binding …)", "experiment": "single-molecule TIRF colocalization, immobilized Pol II", "remark": "listed apart in the source"}}}
{"binder": "B1", "values": [{"measurement": "binding result", "setting": "[1]", "result": "binds"}, {"measurement": "binding result", "setting": "[2]", "result": "binds"}]}
{"binder": "B2", "values": [{"measurement": "binding result", "setting": "[3]", "result": "binds"}, {"measurement": "binding result", "setting": "[4]", "result": "binds"}]}
{"binder": "B3", "values": [{"measurement": "binding result", "setting": "[5]", "result": "binds"}]}
